This passage reports Km results from PMC11027885, “Utilizing surface plasmon resonance as a novel method for monitoring in-vitro P-glycoprotein efflux” (Frontiers in biophysics, 2024).

One may read the Km as the substrate concentration at which the rate is half of its maximum.

The subject of the data set is CCC(=O)C(CC(C)N(C)C)(c1ccccc1)c1ccccc1. The experiment in a line: purified protein, by the assay type. The conditions noted are these: other: 50 nM Pgp in liposomes; curve fit.

With mouse Pgp (Abcb1a, MDR3) (Mus musculus), the Km was 28 ± 10 µM.
